The text below walks through data of patent US20250313633A1.

The target of test [1] is human full-length B7H3 on MCF-7 cells (human) (UniProt Q5ZPR3). Put plainly: FACS on MCF-7 cells; negative control.
The target in test [2] is cynomolgus monkey B7H3 on transfected FlpinCHO cells (W3XX088-FlpinCHO.cProl.pool) (cynomolgus monkey). Briefly: FACS on cynomolgus monkey B7H3-transfected FlpinCHO cell pool; negative control.
Test [3] addresses human full-length B7H3 on MCF-7 cells (human) (UniProt Q5ZPR3). Briefly: cell-based or functional assay.

human full-length B7H3 on MCF-7 cells (human), sequence (Q5ZPR3 29-534): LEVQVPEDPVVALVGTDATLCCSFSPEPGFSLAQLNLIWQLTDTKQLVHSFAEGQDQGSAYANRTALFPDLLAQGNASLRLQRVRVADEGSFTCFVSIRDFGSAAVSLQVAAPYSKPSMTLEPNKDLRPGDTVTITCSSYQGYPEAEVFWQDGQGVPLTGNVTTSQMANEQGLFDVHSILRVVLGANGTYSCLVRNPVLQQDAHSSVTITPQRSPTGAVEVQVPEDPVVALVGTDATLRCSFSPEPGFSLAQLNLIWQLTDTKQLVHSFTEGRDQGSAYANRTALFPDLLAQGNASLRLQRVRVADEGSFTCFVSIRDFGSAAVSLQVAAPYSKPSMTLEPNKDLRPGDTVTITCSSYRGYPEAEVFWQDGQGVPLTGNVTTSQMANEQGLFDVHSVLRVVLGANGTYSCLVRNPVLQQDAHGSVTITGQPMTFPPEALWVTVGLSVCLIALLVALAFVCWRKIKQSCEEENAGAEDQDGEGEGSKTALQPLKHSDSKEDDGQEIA

In the case of Human IgG1 isotype antibody, the Max MFI in test [1] amounted to 47.8 MFI; in test [2], 6.67 MFI. The substance also registered an Internalization on MCF-7, Max MFI in test [3] of 21 MFI.
